Results taken from patent publication US20200339648A1 (University of Washington, published 2020).

How the values were obtained:
[1] = molecular target: T1, mouse IL-2Rβγc on murine cells (CTLL-2 T cells, primary CD4+ T cells) (mouse, UniProt P16297 27-539; P34902 23-369); experiment: cell-based or functional assay
T1 sequence (looked up) 1: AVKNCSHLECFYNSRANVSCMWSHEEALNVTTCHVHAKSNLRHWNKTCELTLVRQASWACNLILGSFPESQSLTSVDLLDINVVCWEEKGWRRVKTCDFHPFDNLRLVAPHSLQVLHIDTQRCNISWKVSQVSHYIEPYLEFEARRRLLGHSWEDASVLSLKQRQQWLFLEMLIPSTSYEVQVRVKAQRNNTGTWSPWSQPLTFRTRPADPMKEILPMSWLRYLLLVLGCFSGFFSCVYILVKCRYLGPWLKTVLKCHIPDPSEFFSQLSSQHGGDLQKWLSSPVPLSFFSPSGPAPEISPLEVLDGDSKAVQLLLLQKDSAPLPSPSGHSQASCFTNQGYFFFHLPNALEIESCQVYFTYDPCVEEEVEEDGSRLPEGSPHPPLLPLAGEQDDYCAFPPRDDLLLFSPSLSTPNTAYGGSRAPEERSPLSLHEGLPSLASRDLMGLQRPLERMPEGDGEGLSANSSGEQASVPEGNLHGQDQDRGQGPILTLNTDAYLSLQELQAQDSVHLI
T1 sequence (looked up) 2: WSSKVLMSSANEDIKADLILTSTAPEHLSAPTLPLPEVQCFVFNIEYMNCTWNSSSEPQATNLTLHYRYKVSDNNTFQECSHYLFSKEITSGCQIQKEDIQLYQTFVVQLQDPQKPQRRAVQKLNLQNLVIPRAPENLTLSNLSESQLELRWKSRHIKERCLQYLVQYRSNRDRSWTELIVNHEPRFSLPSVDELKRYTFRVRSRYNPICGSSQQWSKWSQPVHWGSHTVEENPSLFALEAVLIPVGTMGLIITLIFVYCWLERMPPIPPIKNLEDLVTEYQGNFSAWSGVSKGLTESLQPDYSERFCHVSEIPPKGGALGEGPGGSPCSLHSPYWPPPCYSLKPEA

[2] = molecular target: T1, mouse IL-2Rβγc on murine cells (CTLL-2 …); experiment: cell-based or functional assay; remark: listed apart in the source
[3] = molecular target: T2, human IL-2 receptor α subunit (hIL-2Rα) (human, UniProt P01589 22-238, biotin on the C-terminal biotin acceptor peptide); experiment: SPR, biotinylated receptor on streptavidin chip
T2 construct: range 1-217; Biotinylated and immobilised on streptavidin; also called human IL-2Rα; CD25
T2 sequence: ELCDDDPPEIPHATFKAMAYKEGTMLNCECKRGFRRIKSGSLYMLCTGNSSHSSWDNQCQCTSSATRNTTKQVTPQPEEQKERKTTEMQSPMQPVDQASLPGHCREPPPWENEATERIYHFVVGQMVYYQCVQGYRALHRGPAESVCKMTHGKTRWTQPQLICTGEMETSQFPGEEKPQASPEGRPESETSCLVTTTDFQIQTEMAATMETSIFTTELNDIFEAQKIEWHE
Method: (§1) Less than 100 response units (RU) of each ligand was immobilized to minimize mass transfer effects. […] Surface regeneration for all interactions was conducted using 15 s exposure to 1 M MgCl2 in 10 mM sodium acetate pH 5.5. SPR experiments were carried out in HBS-P+ buffer (GE Healthcare) supplemented with 0.2% bovine serum albumin (BSA) at 25° C. and all binding studies were performed at a flow rate of […] to prevent analyte rebinding. Data was visualized and processed using the Biacore T100 evaluation software version 2.0 (GE Healthcare). Equilibrium titration curve fitting and equilibrium binding dissociation (KD) value determination was implemented using GraphPad Prism assuming all binding interactions to be first order. Biolayer interferometry: binding data were collected in a Octet RED96 (ForteBio, Menlo Park, Calif.) and processed using the instrument's integrated software using a 1:1 binding model. […] Analyte proteins were diluted from concentrated stocks into binding buffer. After baseline measurement in binding buffer alone, the binding kinetics were monitored by dipping the biosensors in wells containing 100 nM of the designed protein (association) and then dipping the sensors back into baseline wells (dissociation).

[4] = molecular target: T3, mouse IL-2 receptor α subunit (mIL-2Rα) (mouse, UniProt P01590 22-236, biotin on the C-terminal biotin acceptor peptide); experiment: SPR, biotinylated receptor on streptavidin chip
T3 construct: extracellular domain; Biotinylated and immobilised on streptavidin; also called murine IL-2Rα
T3 sequence: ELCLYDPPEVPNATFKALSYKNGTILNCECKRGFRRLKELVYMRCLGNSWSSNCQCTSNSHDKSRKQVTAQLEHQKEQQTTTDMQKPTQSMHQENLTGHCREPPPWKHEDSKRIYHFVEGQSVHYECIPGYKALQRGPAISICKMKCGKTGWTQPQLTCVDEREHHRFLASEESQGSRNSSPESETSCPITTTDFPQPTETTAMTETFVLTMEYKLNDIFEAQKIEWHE
Method: as §1

[5] = molecular target: T4, mouse IL-2 receptor β subunit (mIL-2Rβ) (mouse, UniProt P16297 27-240, biotin on the C-terminal biotin acceptor peptide); experiment: SPR, equilibrium titration; biotinylated IL-2Rβ on streptavidin chip
T4 construct: extracellular domain; Biotinylated form for SPR; also called MmIL-2Rβ; murine IL-2Rβ
T4 sequence: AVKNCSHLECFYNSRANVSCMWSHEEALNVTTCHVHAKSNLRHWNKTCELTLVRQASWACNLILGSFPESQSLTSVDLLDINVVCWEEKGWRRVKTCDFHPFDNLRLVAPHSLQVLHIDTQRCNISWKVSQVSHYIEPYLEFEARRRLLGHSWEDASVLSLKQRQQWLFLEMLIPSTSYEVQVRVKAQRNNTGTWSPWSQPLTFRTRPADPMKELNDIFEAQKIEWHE

[6] = molecular target: T5, mouse IL-2 receptor βγc heterodimer (mIL-2Rβγc), soluble (mouse, UniProt P16297 27-240; P34902 23-263, biotin on the C-terminal biotin acceptor peptide); experiment: SPR, equilibrium titration; IL-2Rγ on streptavidin chip, saturating IL-2Rβ in solution
T5 construct: extracellular domain; also called MmIL-2Rβγc; mIL-2Rβνc
T5 sequence 1: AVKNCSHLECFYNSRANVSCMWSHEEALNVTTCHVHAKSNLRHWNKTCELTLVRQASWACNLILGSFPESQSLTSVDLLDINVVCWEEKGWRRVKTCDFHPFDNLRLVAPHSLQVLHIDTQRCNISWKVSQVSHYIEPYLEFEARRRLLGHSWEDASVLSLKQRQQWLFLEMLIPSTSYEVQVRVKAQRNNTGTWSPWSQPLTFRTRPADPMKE
T5 sequence 2: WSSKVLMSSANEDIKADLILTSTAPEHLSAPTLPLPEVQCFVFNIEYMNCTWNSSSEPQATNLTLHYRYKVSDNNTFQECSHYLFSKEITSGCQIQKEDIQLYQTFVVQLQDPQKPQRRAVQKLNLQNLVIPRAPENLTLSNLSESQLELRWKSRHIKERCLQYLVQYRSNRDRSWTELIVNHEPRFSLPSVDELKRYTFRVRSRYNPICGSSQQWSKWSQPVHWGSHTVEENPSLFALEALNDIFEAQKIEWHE

EC50 of pSTAT5 signaling, murine CD4+ primary cells ex vivo, CD25+ [1]: ~24 pM
EC50 of pSTAT5 signaling, murine CD4+ primary cells ex vivo, CD25- [1]: ~129 pM
EC50 (CD25+) pSTAT5, murine T (CTLL-2, CD25+) cells [2]: 70 pM
binding result [3]: no binding
binding result [4]: no binding
Kd [5]: 16.1 nM
Kd [6]: 38.4 nM
B1: Neoleukin-2/15 (designed binder)
chain: PKKKIQLHAEHALYDALMILNIVKTNSPPAEEKLEDYAFNFELILEEIARLFESGDQKDEAEKAKRMKEWMKRIKTTASEDEQEEMANAIITILQSWIFS
notes: 100 residues; also called Neo-2/15; Neolukin-2/15
